Experimental findings from patent US20080171059 are described below.

Series [1] concerns the target New York Esophageal 1 antigen (NY-ESO-1), P78358.
The target in series [2] is Aga2p-N9V fusion surface-displayed on yeast, unmodified (G4S)3 linker (construct pCT-N9V, as in strain EBYN9V).

Sequence of New York Esophageal 1 antigen (NY-ESO-1), P78358 (P78358 whole entry, the tested form may be a part): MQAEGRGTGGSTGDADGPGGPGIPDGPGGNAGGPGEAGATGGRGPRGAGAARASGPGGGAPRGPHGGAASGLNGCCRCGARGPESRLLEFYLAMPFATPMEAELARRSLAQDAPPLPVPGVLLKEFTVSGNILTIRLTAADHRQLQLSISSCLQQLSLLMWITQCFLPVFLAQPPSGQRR

B1: recombinant human Cathepsin S (protein)
chain: LPDSVDWREKGCVTEVKYQGSCGACWAFSAVGALEAQLKLKTGKLVSLSAQNLVDCSTEKYGNKGCNGGFMTTAFQYIIDNKGIDSDASYPYKAMDQKCQYDSKYRAATCSKYTELPYGREDVLKEAVANKGPVSVGVDARHPSFFLYRSGVYYEPSCTQNVNHGVLVVGYGDLNGKEYWLVKNSWGHNFGEEGYIRMARNKGNHCGIASFPSYPEI
Take B1: in series [1], the “cleavage by Cathepsin S” value was “the N-terminus of NY-ESO-1 (MQ|AE . . . ) ... are cleaved rapidly by Cathepsin S (at the positions indicated by the vertical bars)”. The CatS cleavage rank order in series [2] is 4 rank.
